Measurements as given in publication PMC9293779, “Elucidation of binding preferences of YEATS domains to site-specific acetylated nucleosome core particles” (The Journal of Biological Chemistry, 2022).
Each block holds one substance with its values, some of them ahead of it.

Key:
[1] = biological target: H4K8/K12-diacetylated NCP (human) (UniProt P04908); test: MST; YEATS domain labelled with a His-tag labeling kit; 10 mM Hepes-NaOH pH 7.4, 150 mM NaCl; room temperature; Monolith NT.115; fitted to the Hill equation, K1/2 = half-saturation concentration; biological triplicate
[2] = biological target: H4K5/K8-diacetylated NCP (human) (UniProt P04908); test: as above
[3] = biological target: H4K5/K8/K12/K16-tetra-acetylated NCP (human) (UniProt P04908); test: as above
[4] = biological target: H4K8-acetylated NCP (human) (UniProt P04908); test: as above
[5] = biological target: H4K12-acetylated NCP (human) (UniProt P04908); test: as above
[6] = biological target: unmodified nucleosome core particle (NCP) (human) (UniProt P04908); test: as above
[7] = biological target: H4K5-acetylated NCP (human) (UniProt P04908); test: as above
[8] = biological target: H3K9-acetylated NCP (human) (UniProt P04908); test: as above
AF9-YEATS (human) = test: MST; conditions: NCP plate assay: 10 mM Tris-HCl pH 7.5, 150 mM NaCl, 25 C, 1 h, 5 pmol NCP, 25 pmol protein, MST buffer not in material
AF9-YEATS E57A (human) = test: MST; conditions: NCP plate assay: 10 mM Tris-HCl pH 7.5, 150 mM NaCl, 25 C, 1 h, 5 pmol NCP, 25 pmol protein, MST buffer not in material
GAS41-YEATS (human) = test: MST; conditions: NCP plate assay: 10 mM Tris-HCl pH 7.5, 150 mM NaCl, 25 C, 1 h, 5 pmol NCP, 25 pmol protein; MST buffer not in material
YEATS2-YEATS (human) = test: MST; conditions: NCP plate assay: 10 mM Tris-HCl pH 7.5, 150 mM NaCl, 25 C, 1 h, 5 pmol NCP, 25 pmol protein; MST buffer not in material
[9] = histone H4K5ac/K8ac/K12ac/K16ac

Sequence of AF9-YEATS domain, polyhistidine-tagged (microscale thermophoresis) (P42568 1-138): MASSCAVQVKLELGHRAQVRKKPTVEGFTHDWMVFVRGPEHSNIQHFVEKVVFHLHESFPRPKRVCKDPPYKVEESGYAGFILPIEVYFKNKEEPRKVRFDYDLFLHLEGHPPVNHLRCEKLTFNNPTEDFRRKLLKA

fold increase in K1/2 against the WT [1]: 1.3 fold | fold increase in K1/2 against the WT [2]: 1.8 fold | fold increase in K1/2 against the WT [3]: 1.5 fold
Substance: AF9-YEATS E57A mutant (from UniProt P42568 1-138) (domain or fragment)

K1/2 (half-saturation concentration) [1]: 41 nM | K1/2 (half-saturation concentration) [4]: 75 nM | K1/2 (half-saturation concentration) [2]: 30 nM | K1/2 (half-saturation concentration) [5]: 140 nM | K1/2 (half-saturation concentration) [6]: 0.14 µM | K1/2 (half-saturation concentration) [7]: 120 nM | K1/2 (half-saturation concentration) [3]: 25 nM | K1/2 (half-saturation concentration) [8]: 16 nM
Substance: AF9-YEATS domain, polyhistidine-tagged (microscale thermophoresis) (from UniProt P42568 1-138) (domain or fragment)

K1/2 (half-saturation concentration) [6]: 1.4 µM
Substance: GAS41-YEATS domain, polyhistidine-tagged (microscale thermophoresis) (from UniProt O95619 15-159) (domain or fragment)

Substance: H3K9ac NCP
K half (AF9-YEATS (human); histone H3K9ac): 16 nM

Substance: H4K5ac NCP
K half (AF9-YEATS (human); histone H4K5ac): 120 nM

Substance: H4K5ac/K8ac NCP
binding signal (fold K1/2 increase vs WT) (AF9-YEATS E57A (human); histone H4K5ac/K8ac): 1.8 | K half (AF9-YEATS (human); histone H4K5ac/K8ac): 30 nM

Substance: H4K5ac/K8ac/K12ac/K16ac NCP
binding signal (fold K1/2 increase vs WT) (AF9-YEATS E57A (human); [9]): 1.5 | K half (AF9-YEATS (human); [9]): 25 nM

Substance: H4K8ac NCP
K half (AF9-YEATS (human); histone H4K8ac): 75 nM

Substance: H4K8ac/K12ac NCP
binding signal (fold K1/2 increase vs WT) (AF9-YEATS E57A (human); histone H4K8ac/K12ac): 1.3 | K half (AF9-YEATS (human); histone H4K8ac/K12ac): 41 nM

Substance: H4K12ac NCP
K half (AF9-YEATS (human); histone H4K12ac): 140 nM

K1/2 (half-saturation concentration) [6]: 2.6 µM
Substance: YEATS2-YEATS domain, polyhistidine-tagged (microscale thermophoresis) (from UniProt Q9ULM3 200-349) (domain or fragment)

Substance: nucleosome-free 147-bp dsDNA
K half (GAS41-YEATS (human)): > 50000 nM | K half (YEATS2-YEATS (human)): 8.2 µM | K half (AF9-YEATS (human)): 12000 nM

Substance: unmodified NCP
K half (GAS41-YEATS (human)): 1400 nM | K half (YEATS2-YEATS (human)): 2.6 µM | K half (AF9-YEATS (human)): 140 nM
